Target: folate receptor alpha (FOLR1) on MV4;11 FOLR1+ cells and on CBF/GLIS-transduced CB HSPCs (UniProt P15328 25-234, limits assumed)
Assay: cell-based or functional assay

Sequence of folate receptor alpha (FOLR1) on MV4;11 FOLR1+ cells and on CBF/GLIS-transduced CB HSPCs (P15328 25-234 limits assumed): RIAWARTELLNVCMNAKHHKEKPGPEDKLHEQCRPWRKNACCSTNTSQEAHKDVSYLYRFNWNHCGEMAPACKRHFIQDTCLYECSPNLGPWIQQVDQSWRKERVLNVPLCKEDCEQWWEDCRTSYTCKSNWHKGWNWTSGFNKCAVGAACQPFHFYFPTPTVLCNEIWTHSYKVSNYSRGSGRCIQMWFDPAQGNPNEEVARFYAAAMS

B1: FOLR1-directed site-specific antibody-drug Conjugate P (IgG antibody with VH region SEQ ID NO: 362 and VL region SEQ ID NO: 367, conjugate formula P, n=4) (antibody, V domains shown)
VH: EVQLVESGGGLVQPGGSLRLSCAASGFNIRTQSIHWVRQAPGKGLEWIGDIFPIDGITDYADSVKGRFTISADTSKNTAYLQMNSLRAEDTAVYYCARGSWSWPSGMDYYLDYWGQGTLVTVSS
VL: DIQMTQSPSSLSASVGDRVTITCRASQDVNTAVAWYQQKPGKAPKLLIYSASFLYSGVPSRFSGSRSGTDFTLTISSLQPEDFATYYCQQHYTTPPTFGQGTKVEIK
modifications: para-azidomethylphenylalanine residues substituting for Y180 and F404 of each VH region (so in the source); heavy chain positions), conjugated according to conjugate formula P, n=4 (hemiasterlin drug-linker)
  in vitro cytotoxicity IC50 (printed as '1050s') against CBF/GLIS-transduced CB HPSCs (which upregulate FOLR1): 4.2 nM
  in vitro cytotoxicity IC50 (printed as '1050s') against MV4;11 AML cell line engineered to express FOLR1 (MV4;11 FOLR1+): 0.1 nM
